± gives the standard deviation of the averaged measurements.
Test system: ATP
Assay: switch fluorescence ratio, 500 uM ATP over buffer (Cy3 cluster intensity, sum of 5 cycles each) (fold (ratio)); higher = stronger signal-on switching upon ATP binding; sequences stand for … in TCGTCGGCAGCGTCAGATGTGTATAAGAGACAGTTTTTTTTTTTTTTTTTTTTTTTTT…TC
Details: aptamer strand: ATP DNA aptamer (quencher-CACCTGGGGGAGTATTGCGGAGGAAGG + anchor), 100 nM annealed; ATP concentration: 500 uM
In short: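 Exposure to 500 uM ATP lasted 15 min at 22 °C before imaging, and a selection-buffer image was taken beforehand, for Cy3-labelled switching-strand clusters on a modified Illumina MiSeq flow-cell annealed to 100 nM quencher-labelled ATP aptamer. Five buffer/ATP cycles were run with NaOH stripping and re-annealing between them. The fluorescence ratio per cluster is summed target-cycle over summed buffer-cycle Cy3 intensity, averaged per switch-domain sequence. Clusters outside 100-1000 RFU were excluded.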

Sequence | switch fluorescence ratio
GGACGCATGG | 1.33 ± 0.071
TCGAATAGAT | 0.958 ± 0.04
TTGCGTTGTT | 0.9695 ± 0.0043
GAGGTATTTG | 1.02 ± 0.037
GGAGGGTTAC | 0.972 ± 0.016
GGGATTATAT | 1.02 ± 0.032
ACGATCTCCA | 1.035 ± 0.005
TGCCTGTGCG | 1.04 ± 0.031
ATCGGTAACT | 1.01 ± 0.032
ACAAAGATGA | 0.973 ± 0.015
CCTGGATTGC | 1.24 ± 0.093
AGGGCCGAT | 0.955 ± 0.046
GGTCGAGCTA | 0.996 ± 0.042
GAGGTCCAGC | 1.14 ± 0.074
TTTGAGCAGA | 0.97 ± 0.02
GTGGGAAAGG | 0.9715 ± 0.0057
AGTGGGTGGG | 0.9921 ± 0.0049
TTATAATTTG | 1.02 ± 0.032
CTATAAACGG | 1.03 ± 0.054
AGGGTAGTCC | 0.986 ± 0.03
TACAGATTGG | 0.979 ± 0.025
TCAGGGGCAG | 1.06 ± 0.081
GATGCACCGA | 1.06 ± 0.036

Sequence | switch fluorescence ratio
AGTTAACAGC | 0.959 ± 0.04
TATGCAGTTT | 0.968 ± 0.026
TTTACTGCCT | 1.06 ± 0.022
CATTTTTTT | 0.99009 ± 0.00046
GTTTTTTTTC | 0.985 ± 0.011
TCTGAGTTTG | 0.993 ± 0.038
TCGGCTTTGG | 0.9639 ± 0.0093
GGTGCTAGAA | 0.9789 ± 0.0083
TGGAATGCGG | 0.99792 ± 0.00061
TAATGGTTCG | 0.9962 ± 0.0025
ATTTCTTTTT | 1.03 ± 0.0055
TTTTCGGCTG | 0.943 ± 0.11
AATTGCGTTG | 0.979 ± 0.025
TTGAAGTCGT | 0.988 ± 0.02
ACCATTATTT | 1.03 ± 0.014
CATAATTGCT | 1.01 ± 0.0059
GAGAACATGG | 1.03 ± 0.035
ATTGCGGCAC | 1.05 ± 0.024
AGACCGCAGT | 1.137 ± 0.0071
GATTCCATAT | 1 ± 0.03
ATCGAATTTT | 1 ± 0.061
GGGGGCTTTG | 0.978 ± 0.023
TGGCAAAATG | 0.9915 ± 0.0088

Sequence | switch fluorescence ratio
GTATTGGGCT | 0.98036 ± 0.00097
GAAATCACTC | 1.15 ± 0.13
CTTGGTGGGA | 1.04 ± 0.012
ATAGGACGGG | 0.967 ± 0.028
TGGGGTTAGT | 0.979 ± 0.014
CTAGTTAGCT | 1.015 ± 0.0097
GTATGGCAGG | 1.01 ± 0.018
GAGAATTGTA | 0.97 ± 0.03
ATCATTTTTA | 1.01 ± 0.02
TAGAAAGGCC | 1.03 ± 0.037
TTTAATATAG | 1 ± 0.044
CGATAGTATT | 0.9854 ± 0.0063
TTGGATGGGT | 0.959 ± 0.05
TTATTCTCGG | 1.04 ± 0.068
TATTGACGGT | 1.02 ± 0.022
ACGTGGGTCT | 1.01 ± 0.028
TTTTATGCTT | 0.97025 ± 0.00037
TGCGGGGGG | 0.9855 ± 0.0037
GTGACTATGG | 0.96325 ± 0.00082
TACATGGGTT | 1.01 ± 0.0092
GAAGGGAGAG | 0.993 ± 0.031
GATAGTATGC | 0.961 ± 0.059
CACGCATGTT | 1.09 ± 0.015

Sequence | switch fluorescence ratio
GTCAAAAATT | 0.987 ± 0.01
GGCCAAGTTG | 0.994 ± 0.017
ACATTGGCTA | 1 ± 0.035
TATAGCAGGG | 1.03 ± 0.018
GGGAGAGACT | 1.03 ± 0.014
GCCCCATTTT | 1.01 ± 0.024
TCATACCATA | 1.09 ± 0.03
ATCCTTAAGG | 0.961 ± 0.026
ATTTAGGTAG | 1.02 ± 0.024
GGTTATAATC | 0.969 ± 0.07
AATTGTTAAC | 0.995 ± 0.016
CGACGACAGG | 1.35 ± 0.024
ATTCGATAGT | 1.03 ± 0.018
GATGGAAAGG | 0.998 ± 0.029
GGTGGGATGA | 0.965 ± 0.015
TACCTCACTA | 1.42 ± 0.17
GTCGGGGGG | 1.01 ± 0.026
CGGGGCGGAT | 1.04 ± 0.016
AATTATCATC | 1.02 ± 0.013
CTGGGGGTCA | 1.04 ± 0.026
CGGTGTGTCC | 0.97164 ± 0.00017
GGTTGGGGAT | 0.979 ± 0.016
TTTTTGCTAT | 1.06 ± 0.062

Sequence | switch fluorescence ratio
ATTAAATAG | 0.9803 ± 0.0081
GTTGGAATGA | 1 ± 0.037
GTATGTCGAG | 0.988 ± 0.014
CATGACCTTT | 1.04 ± 0.016
TTGTCATGAT | 1.006 ± 0.006
AAAATCTTGT | 1.04 ± 0.0066
TTGCTCCTTT | 1.02 ± 0.03
GGTGTAGAAC | 1 ± 0.049
GGACTGGAAG | 1.19 ± 0.051
GGGCGTAAAA | 1.07 ± 0.023
GCCTATTGTT | 0.983 ± 0.02
AGGGAGCAGA | 0.9948 ± 0.0059
TAGTTTGGCT | 1.02 ± 0.047
TTTTTGTTTC | 1.02 ± 0.046
CGGGCATTGT | 1.01 ± 0.051
CATTTGAGCC | 0.973 ± 0.013
GGATTTGTTA | 0.983 ± 0.039
AAAGGTTAAG | 0.991 ± 0.015
TTCATCGACT | 0.996 ± 0.047
AAGATTCGCC | 0.993 ± 0.012
GGGCATGTAC | 1.57 ± 0.15
ATCGAGTTAG | 0.978 ± 0.012
GGAATAGGGG | 0.991 ± 0.018

Sequence | switch fluorescence ratio
TCGGTTTGCG | 1.01 ± 0.022
GCTGCTGGGC | 0.968 ± 0.036
AAATGTTAAG | 1.01 ± 0.032
TGTTGTGTTT | 0.989 ± 0.033
ATTTGAGCAG | 1.01 ± 0.011
CCCGGGTGAT | 4 ± 0.3
GACCCTTACC | 1.38 ± 0.014
TCTTGGCCAT | 1.24 ± 0.32
TTCTGAGGTG | 1.074 ± 0.0026
TATAAAGGGC | 1.01 ± 0.054
CGGTTTAGGT | 0.951 ± 0.017
CAGGTAGGGG | 0.9507 ± 0.0065
GTATGTAGTA | 0.985 ± 0.0098
TGGTAAAAGG | 0.991 ± 0.038
TAAAAGGAAA | 0.9773 ± 0.0045
AGTTCGTGGG | 0.973 ± 0.013
CTGAGTTTGA | 1 ± 0.013
TCAGTACTTT | 0.998 ± 0.043
AAGGGATGGC | 1.03 ± 0.043
TCAAGTAGAG | 0.99 ± 0.011
CAGGAAAACG | 1.03 ± 0.018
TCAACCTTTT | 1.04 ± 0.052
ACGGTGGTCG | 0.913 ± 0.033

Sequence | switch fluorescence ratio
CAGCGTCCCT | 1.07 ± 0.014
GGTGAAAGCT | 1.04 ± 0.019
ATTAATCGAC | 1.03 ± 0.092
TTTTTCGCCT | 1.01 ± 0.029
CAAGAATGTA | 0.973 ± 0.024
AGTTATACGG | 0.995 ± 0.032
TTCATTTATT | 0.9904 ± 0.0055
TGAAAAAGAT | 0.989 ± 0.028
GCCCTTTTAA | 0.982 ± 0.016
ATTGGCACT | 1.03 ± 0.018
TTATTGGAGG | 0.9918 ± 0.0077
AATTTGATAA | 0.981 ± 0.011
TTCGTAATCG | 1.07 ± 0.093
GAGCGCCCGT | 1.01 ± 0.0017
GTAGGGAGGG | 0.987 ± 0.013
TTATTTTAGT | 1 ± 0.017
TAGAAGGTTC | 1.17 ± 0.29
AACGATAGCA | 1.08 ± 0.016
TCGAAGGGGA | 0.971 ± 0.035
